Measurements as given in ChEMBL document CHEMBL4321838, “Drug Design Targeting T-Cell Factor-Driven Epithelial-Mesenchymal Transition as a Therapeutic Strategy for Colorectal Cancer” (J Med Chem, 2019).

Legend:
[1] = compound: Cn1ccc2c(c1=O)C(=O)c1nccc3c1c-2nc1ccccc13; assay: (§1) Competitive inhibition of human topoisomerase 2alpha ATPase activity assessed as Km for ATP hydrolysis with DNA relaxation at 10 uM using supercoiled plasmid DNA as susbtrate after 1 hr by malachite green assay/Michelis-Menten kinetics analysis (reference value: 317.8 to 350.1 microM)
[2] = compound: COc1cc(NC(C)=O)c(O)c2nccc(-c3ccccc3NC(=O)c3ccccc3)c12; assay: as §1
[3] = compound: COc1cc(NC(C)=O)c(O)c2nccc(-c3ccccc3NC(=O)c3ccccc3)c12; assay: Competitive inhibition of human topoisomerase 2alpha ATPase activity assessed as Km for ATP hydrolysis with DNA relaxation at 5 uM using supercoiled plasmid DNA as susbtrate after 1 hr by malachite green assay/Michelis-Menten kinetics analysis (reference value: 317.8 to 350.1 microM)
[4] = compound: Cn1ccc2c(c1=O)C(=O)c1nccc3c1c-2nc1ccccc13; assay: Competitive inhibition of human topoisomerase 2alpha ATPase activity assessed as Km for ATP hydrolysis with DNA relaxation at 20 uM using supercoiled plasmid DNA as susbtrate after 1 hr by malachite green assay/Michelis-Menten kinetics analysis (reference value: 317.8 to 350.1 microM)
[5] = compound: COc1cc(NC(C)=O)c(O)c2nccc(-c3ccccc3NC(=O)c3ccccc3)c12; assay: Competitive inhibition of human topoisomerase 2alpha ATPase activity assessed as Vmax for ATP hydrolysis with DNA relaxation at 5 uM using supercoiled plasmid DNA as susbtrate after 1 hr by malachite green assay/Michelis-Menten kinetics analysis (reference value: 0.652 to 0.6529 pmol/s)
[6] = compound: Cn1ccc2c(c1=O)C(=O)c1nccc3c1c-2nc1ccccc13; assay: Competitive inhibition of human topoisomerase 2alpha ATPase activity assessed as Vmax for ATP hydrolysis with DNA relaxation at 20 uM using supercoiled plasmid DNA as susbtrate after 1 hr by malachite green assay/Michelis-Menten kinetics analysis (reference value: 0.652 to 0.6529 pmol/s)
[7] = compound: Cn1ccc2c(c1=O)C(=O)c1nccc3c1c-2nc1ccccc13; assay: (§2) Competitive inhibition of human topoisomerase 2alpha ATPase activity assessed as Vmax for ATP hydrolysis with DNA relaxation at 10 uM using supercoiled plasmid DNA as susbtrate after 1 hr by malachite green assay/Michelis-Menten kinetics analysis (reference value: 0.652 to 0.6529 pmol/s)
[8] = compound: COc1cc(NC(C)=O)c(O)c2nccc(-c3ccccc3NC(=O)c3ccccc3)c12; assay: as §2

B1: DNA topoisomerase 2-alpha (Homo sapiens), P11388 (protein)
chain: MEVSPLQPVNENMQVNKIKKNEDAKKRLSVERIYQKKTQLEHILLRPDTYIGSVELVTQQMWVYDEDVGINYREVTFVPGLYKIFDEILVNAADNKQRDPKMSCIRVTIDPENNLISIWNNGKGIPVVEHKVEKMYVPALIFGQLLTSSNYDDDEKKVTGGRNGYGAKLCNIFSTKFTVETASREYKKMFKQTWMDNMGRAGEMELKPFNGEDYTCITFQPDLSKFKMQSLDKDIVALMVRRAYDIAGSTKDVKVFLNGNKLPVKGFRSYVDMYLKDKLDETGNSLKVIHEQVNHRWEVCLTMSEKGFQQISFVNSIATSKGGRHVDYVADQIVTKLVDVVKKKNKGGVAVKAHQVKNHMWIFVNALIENPTFDSQTKENMTLQPKSFGSTCQLSEKFIKAAIGCGIVESILNWVKFKAQVQLNKKCSAVKHNRIKGIPKLDDANDAGGRNSTECTLILTEGDSAKTLAVSGLGVVGRDKYGVFPLRGKILNVREASHKQIMENAEINNIIKIVGLQYKKNYEDEDSLKTLRYGKIMIMTDQDQDGSHIKGLLINFIHHNWPSLLRHRFLEEFITPIVKVSKNKQEMAFYSLPEFEEWKSSTPNHKKWKVKYYKGLGTSTSKEAKEYFADMKRHRIQFKYSGPEDDAAISLAFSKKQIDDRKEWLTNFMEDRRQRKLLGLPEDYLYGQTTTYLTYNDFINKELILFSNSDNERSIPSMVDGLKPGQRKVLFTCFKRNDKREVKVAQLAGSVAEMSSYHHGEMSLMMTIINLAQNFVGSNNLNLLQPIGQFGTRLHGGKDSASPRYIFTMLSSLARLLFPPKDDHTLKFLYDDNQRVEPEWYIPIIPMVLINGAEGIGTGWSCKIPNFDVREIVNNIRRLMDGEEPLPMLPSYKNFKGTIEELAPNQYVISGEVAILNSTTIEISELPVRTWTQTYKEQVLEPMLNGTEKTPPLITDYREYHTDTTVKFVVKMTEEKLAEAERVGLHKVFKLQTSLTCNSMVLFDHVGCLKKYDTVLDILRDFFELRLKYYGLRKEWLLGMLGAESAKLNNQARFILEKIDGKIIIENKPKKELIKVLIQRGYDSDPVKAWKEAQQKVPDEEENEESDNEKETEKSDSVTDSGPTFNYLLDMPLWYLTKEKKDELCRLRNEKEQELDTLKRKSPSDLWKEDLATFIEELEAVEAKEKQDEQVGLPGKGGKAKGKKTQMAEVLPSPRGQRVIPRITIEMKAEAEKKNKKKIKNENTEGSPQEDGVELEGLKQRLEKKQKREPGTKTKKQTTLAFKPIKKGKKRNPWSDSESDRSSDESNFDVPPRETEPRRAATKTKFTMDLDSDEDFSDFDEKTDDEDFVPSDASPPKTKTSPKLSNKELKPQKSVVSDLEADDVKGSVPLSSSPPATHFPDETEITNPVPKKNVTVKKTAAKSQSSTSTTGAKKRAAPKGTKRDPALNSGVSQKPDPAKTKNRRKRKPSTSDDSDSNFEKIVSKAVTSKKSKGESDDFHMDFDSAVAPRAKSVRAKKPIKYLEESDEDDLF
With B1 the Km [1] was 518 µM, the Km [2] was 387 µM and the Km [3] was 380 µM. For the same protein, the Km [4] was 651 µM, the Vmax [5] was 0.65 pmol/s and the Vmax [6] was 0.65 pmol/s. The Vmax [7] was 0.657 pmol/s and the Vmax [8] was 0.646 pmol/s.
